# Laboratory results from patent US20240376221A1.
# Numbering of substitutions follows the chain as printed.
# B1: IgG1-CD134-GBR830 (antibody, INN chains, looked up, V domains shown)
# VH: QVTLKESGPALVKPTQTLTLTCSFSGFSLSTSGMGVGWIRQPPGKALEWIAHIWWDDDKYYNTALKTRLTISKDTSKNQVVLTMTNMDPVDTATYYCARIDWDGFAYWGQGTLVTVSS
# VL: EIVLTQSPATLSLSPGERATLSCRASSSVSYMHWYQQKPGQAPRPWIYATSNRATGIPARFSGSGSGTDYTLTISSLEPEDFAVYYCQQWSSNPWTFGQGTKVEIK
# modifications: IgG1
# B2: IgG1-CD134-RG7888 (antibody, INN chains, looked up, V domains shown)
# VH: EVQLVQSGAEVKKPGASVKVSCKASGYTFTDSYMSWVRQAPGQGLEWIGDMYPDNGDSSYNQKFRERVTITRDTSTSTAYLELSSLRSEDTAVYYCVLAPRWYFSVWGQGTLVTVSS
# VL: DIQMTQSPSSLSASVGDRVTITCRASQDISNYLNWYQQKPGKAPKLLIYYTSRLRSGVPSRFSGSGSGTDFTLTISSLQPEDFATYYCQQGHTLPPTFGQGTKVEIK
# modifications: IgG1
# B3: IgG1-CD134-MEDI0562 (antibody, INN chains, looked up, V domains shown)
# VH: QVQLQESGPGLVKPSQTLSLTCAVYGGSFSSGYWNWIRKHPGKGLEYIGYISYNGITYHNPSLKSRITINRDTSKNQYSLQLNSVTPEDTAVYYCARYKYDYDGGHAMDYWGQGTLVTVSS
# VL: B2 VL with R53K, R55H, F71Y, H92S, T93A, P96W
# modifications: IgG1
# B4: IgG1-CD134-ABBV368 (antibody, INN chains, looked up, V domains shown)
# VH: EVQLVESGGGLVQPGGSLRLSCAASGFTFSRYGMSWVRQAPGKGLELVATINSNGGRTYYPDSVKGRFTISRDNAKNSLYLQMNSLRAEDTAVYYCAREGITTAYAMDYWGQGTTVTVSS
# VL: DIVMTQSPDSLAVSLGERATINCKASQSVDYDGDSYMHWYQQKPGQPPKLLIYAASILESGVPDRFSGSGSGTDFTLTISSLQAEDVAVYYCQQSNEDPRTFGGGTKVEIK
# modifications: IgG1
# Target: human OX40 with mouse CRD3 (human with mouse CRD3) (UniProt P43489)
# Sequence (P43489 other isoform, or with tags, fused parts or gaps limits assumed): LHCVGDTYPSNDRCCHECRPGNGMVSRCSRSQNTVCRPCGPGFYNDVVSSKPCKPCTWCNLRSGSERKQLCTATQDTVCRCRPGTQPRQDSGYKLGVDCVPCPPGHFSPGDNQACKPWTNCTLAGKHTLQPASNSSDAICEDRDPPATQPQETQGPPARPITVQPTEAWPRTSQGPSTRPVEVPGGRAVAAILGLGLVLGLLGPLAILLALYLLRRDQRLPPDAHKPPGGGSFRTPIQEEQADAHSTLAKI
# Experiment: flow cytometry, ExpiCHO-S cells with human OX40 carrying mouse CRD3
row,Binder,EC50 (read off the curve)
1,B1,0.06 µg/mL

# Target: recombinant human OX40 (Acro Biosystems, cat. no. OXO-H5224) (human) (UniProt P43489)
# Sequence (P43489 29-216 limits assumed): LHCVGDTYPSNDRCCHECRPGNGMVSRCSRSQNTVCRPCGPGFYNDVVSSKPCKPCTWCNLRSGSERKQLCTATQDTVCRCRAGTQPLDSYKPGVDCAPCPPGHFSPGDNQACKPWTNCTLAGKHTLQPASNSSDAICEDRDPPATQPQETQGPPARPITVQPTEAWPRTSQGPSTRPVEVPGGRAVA
# Experiment: BLI cross-block; competitor (immobilized 1st Ab): IgG1-CD134-012
row,Binder,corrected association response
1,B2,0.54 nm
2,B3,0.82 nm
3,B1,0.84 nm
4,B4,0.87 nm

# Target: recombinant human OX40 (Acro Biosystems, cat. no. OXO-H5224) (human) (UniProt P43489)
# Experiment: BLI cross-block; competitor (immobilized 1st Ab): IgG1-CD134-GBR830
row,Binder,corrected association response
1,B2,0.26 nm
2,B3,0.32 nm
3,B1,0.01 nm
4,B4,0.01 nm

# Target: human OX40, cell surface-expressed (human) (UniProt P43489)
# Sequence (P43489 29-277): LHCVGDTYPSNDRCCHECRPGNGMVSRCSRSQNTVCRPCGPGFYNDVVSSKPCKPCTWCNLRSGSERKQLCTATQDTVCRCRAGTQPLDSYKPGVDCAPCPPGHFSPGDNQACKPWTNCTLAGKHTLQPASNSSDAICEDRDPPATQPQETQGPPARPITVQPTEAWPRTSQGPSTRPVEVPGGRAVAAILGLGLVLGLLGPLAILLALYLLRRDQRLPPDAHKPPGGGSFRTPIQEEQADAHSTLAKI
# Experiment: flow cytometry, activated CD4+ T cells, donor 2
row,Binder,EC50
1,B2,0.0292 µg/mL

# Target: recombinant human OX40 (Acro Biosystems, cat. no. OXO-H5224) (human) (UniProt P43489)
# Experiment: BLI cross-block; competitor (immobilized 1st Ab): IgG1-CD134-003-HC6LC2-RR
row,Binder,corrected association response
1,B2,1.38 nm
2,B3,1.73 nm
3,B1,1.08 nm
4,B4,1.68 nm

# Target: human OX40 with mouse CRD4 (human with mouse CRD4) (UniProt P43489)
# Sequence (P43489 other isoform, or with tags, fused parts or gaps limits assumed): as the sequence (P43489 29-277) above, with D109N, A122S, H125Q, L127R, Q128H, N132D, S134L, I137V counted along it
# Experiment: flow cytometry, ExpiCHO-S cells with human OX40 carrying mouse CRD4
row,Binder,EC50 (read off the curve)
1,B2,0.01 µg/mL
2,B3,0.06 µg/mL
3,B1,0.06 µg/mL
4,B4,0.005 µg/mL

# Target: human OX40, cell surface-expressed (human) (UniProt P43489)
# Experiment: flow cytometry, activated CD8+ T cells, donor 2
row,Binder,EC50
1,B2,0.0332 µg/mL

# Target: recombinant human OX40 (Acro Biosystems, cat. no. OXO-H5224) (human) (UniProt P43489)
# Experiment: BLI cross-block; competitor (immobilized 1st Ab): IgG1-CD134-A4453
row,Binder,corrected association response
1,B2,0.47 nm
2,B3,0.41 nm
3,B1,0.28 nm
4,B4,0.29 nm

# Target: recombinant human OX40 (Acro Biosystems, cat. no. OXO-H5224) (human) (UniProt P43489)
# Experiment: BLI cross-block; competitor (immobilized 1st Ab): IgG1-CD134-007
row,Binder,corrected association response
1,B2,0.47 nm
2,B3,1.14 nm
3,B1,0.07 nm
4,B4,0 nm

# Target: recombinant human OX40 (Acro Biosystems, cat. no. OXO-H5224) (human) (UniProt P43489)
# Experiment: BLI cross-block; competitor (immobilized 1st Ab): IgG1-CD134-ABBV368
row,Binder,corrected association response
1,B2,0.01 nm
2,B3,-0.02 nm
3,B1,-0.01 nm
4,B4,-0.04 nm

# Target: recombinant human OX40 (Acro Biosystems, cat. no. OXO-H5224) (human) (UniProt P43489)
# Experiment: BLI cross-block; competitor (immobilized 1st Ab): IgG1-CD134-INCAGN1949
row,Binder,corrected association response
1,B2,0.02 nm
2,B3,0 nm
3,B1,0.01 nm
4,B4,0.01 nm

# Target: human OX40, cell surface-expressed (human) (UniProt P43489)
# Experiment: flow cytometry, activated CD8+ T cells, donor 3
row,Binder,EC50
1,B2,0.0393 µg/mL

# Target: human OX40 with mouse CRD1 (human with mouse CRD1) (UniProt P43489)
# Sequence (P43489 other isoform, or with tags, fused parts or gaps limits assumed): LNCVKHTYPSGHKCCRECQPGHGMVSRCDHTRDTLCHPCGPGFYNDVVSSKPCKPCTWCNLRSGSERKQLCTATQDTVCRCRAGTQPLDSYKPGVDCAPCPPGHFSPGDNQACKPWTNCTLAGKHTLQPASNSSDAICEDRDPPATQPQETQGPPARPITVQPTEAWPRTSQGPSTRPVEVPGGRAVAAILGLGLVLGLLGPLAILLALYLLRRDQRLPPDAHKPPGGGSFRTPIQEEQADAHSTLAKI
# Experiment: flow cytometry, ExpiCHO-S cells with human OX40 carrying mouse CRD1
row,Binder,EC50 (read off the curve)
1,B2,0.02 µg/mL
2,B3,0.07 µg/mL
3,B1,0.06 µg/mL
4,B4,0.005 µg/mL

# Target: recombinant human OX40 (Acro Biosystems, cat. no. OXO-H5224) (human) (UniProt P43489)
# Experiment: BLI cross-block; competitor (immobilized 1st Ab): IgG1-CD134-h3C8
row,Binder,corrected association response
1,B2,0.41 nm
2,B3,0.54 nm
3,B1,-0.02 nm
4,B4,-0.03 nm

# Target: human OX40, cell surface-expressed (human) (UniProt P43489)
# Experiment: flow cytometry, activated CD4+ T cells, donor 3
row,Binder,EC50
1,B2,0.0316 µg/mL

# Target: recombinant human OX40 (Acro Biosystems, cat. no. OXO-H5224) (human) (UniProt P43489)
# Experiment: BLI cross-block; competitor (immobilized 1st Ab): IgG1-CD134-49B4-RRE
row,Binder,corrected association response
1,B2,0.02 nm
2,B3,0.15 nm
3,B1,0 nm
4,B4,0 nm

# Target: human OX40 with mouse CRD2 (human with mouse CRD2) (UniProt P43489)
# Sequence (P43489 other isoform, or with tags, fused parts or gaps limits assumed): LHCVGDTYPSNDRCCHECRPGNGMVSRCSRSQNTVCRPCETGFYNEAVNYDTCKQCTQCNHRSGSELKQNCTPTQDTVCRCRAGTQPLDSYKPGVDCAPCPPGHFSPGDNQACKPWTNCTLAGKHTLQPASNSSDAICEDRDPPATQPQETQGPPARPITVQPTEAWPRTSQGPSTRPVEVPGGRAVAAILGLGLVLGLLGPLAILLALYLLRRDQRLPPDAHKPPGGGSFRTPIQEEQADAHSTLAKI
# Experiment: flow cytometry, ExpiCHO-S cells with human OX40 carrying mouse CRD2
row,Binder,EC50 (read off the curve)
1,B2,0.01 µg/mL
2,B3,0.06 µg/mL

# Target: human OX40, cell surface-expressed (human) (UniProt P43489)
# Experiment: flow cytometry, activated CD8+ T cells, donor 1
row,Binder,EC50
1,B2,0.0627 µg/mL

# Target: cynomolgus monkey OX40, cell surface-expressed (cynomolgus monkey)
# Sequence (P43489 other isoform, or with tags, fused parts or gaps limits assumed): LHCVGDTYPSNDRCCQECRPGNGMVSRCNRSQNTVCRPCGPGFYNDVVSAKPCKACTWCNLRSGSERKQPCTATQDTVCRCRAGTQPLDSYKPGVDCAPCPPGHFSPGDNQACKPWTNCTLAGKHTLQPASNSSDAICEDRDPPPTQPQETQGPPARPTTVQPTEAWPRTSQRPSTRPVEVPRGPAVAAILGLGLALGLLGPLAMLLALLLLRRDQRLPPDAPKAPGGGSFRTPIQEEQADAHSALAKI
# Experiment: flow cytometry, HEK293F cells with cynomolgus monkey OX40
row,Binder,EC50 (read off the curve)
1,B2,0.05 µg/mL
2,B3,0.1 µg/mL
3,B4,0.05 µg/mL

# Target: recombinant human OX40 (Acro Biosystems, cat. no. OXO-H5224) (human) (UniProt P43489)
# Experiment: BLI cross-block; competitor (immobilized 1st Ab): IgG1-CD134-003
row,Binder,corrected association response
1,B2,0.66 nm
2,B3,1.39 nm
3,B1,0.97 nm
4,B4,1.27 nm

# Target: human OX40, cell surface-expressed (human) (UniProt P43489)
# Experiment: flow cytometry, ExpiCHO-S cells with human OX40
row,Binder,EC50 (read off the curve)
1,B2,0.007 µg/mL
2,B3,0.07 µg/mL
3,B1,0.05 µg/mL
4,B4,0.005 µg/mL

# Target: recombinant human OX40 (Acro Biosystems, cat. no. OXO-H5224) (human) (UniProt P43489)
# Experiment: BLI cross-block; competitor (immobilized 1st Ab): IgG1-CD134-RG7888
row,Binder,corrected association response
1,B2,0.02 nm
2,B3,0 nm
3,B1,0.61 nm
4,B4,0.02 nm

# Target: recombinant human OX40 (Acro Biosystems, cat. no. OXO-H5224) (human) (UniProt P43489)
# Experiment: BLI cross-block; competitor (immobilized 1st Ab): IgG1-CD134-Hu106
row,Binder,corrected association response
1,B2,0.1 nm
2,B3,0.69 nm
3,B1,0.02 nm
4,B4,0 nm

# Target: recombinant human OX40 (Acro Biosystems, cat. no. OXO-H5224) (human) (UniProt P43489)
# Experiment: BLI cross-block; competitor (immobilized 1st Ab): IgG1-CD134-MEDI0562
row,Binder,corrected association response
1,B2,0.02 nm
2,B3,0 nm
3,B1,0.33 nm
4,B4,-0.01 nm

# Target: human OX40, cell surface-expressed (human) (UniProt P43489)
# Experiment: flow cytometry, activated CD4+ T cells, donor 1
row,Binder,EC50
1,B2,0.0453 µg/mL

# Target: human OX40, cell surface-expressed (human) (UniProt P43489)
# Experiment: flow cytometry, activated CD4+ T cells, mean of 3 donors
row,Binder,EC50
1,B2,0.0354 µg/mL

# Target: recombinant human OX40 (Acro Biosystems, cat. no. OXO-H5224) (human) (UniProt P43489)
# Experiment: BLI cross-block; competitor (immobilized 1st Ab): IgG1-CD134-11D4
row,Binder,corrected association response
1,B2,0.11 nm
2,B3,0.14 nm
3,B1,0.13 nm
4,B4,0.13 nm

# Target: recombinant human OX40 (Acro Biosystems, cat. no. OXO-H5224) (human) (UniProt P43489)
# Experiment: BLI cross-block; competitor (immobilized 1st Ab): IgG1-CD134-SF2
row,Binder,corrected association response
1,B2,0.01 nm
2,B3,0.01 nm
3,B1,0.19 nm
4,B4,0.04 nm

# Target: recombinant human OX40 (Acro Biosystems, cat. no. OXO-H5224) (human) (UniProt P43489)
# Experiment: BLI cross-block; competitor (immobilized 1st Ab): IgG1-CD134-IBI101
row,Binder,corrected association response
1,B2,0.23 nm
2,B3,0.28 nm
3,B1,0.02 nm
4,B4,0.01 nm

# Target: human OX40, cell surface-expressed (human) (UniProt P43489)
# Experiment: flow cytometry, activated CD8+ T cells, mean of 3 donors
row,Binder,EC50
1,B2,0.0451 µg/mL

# Target: human OX40, cell surface-expressed (human) (UniProt P43489)
# Experiment: flow cytometry, HEK293F cells with human OX40
row,Binder,EC50 (read off the curve)
1,B2,0.05 µg/mL
2,B3,0.06 µg/mL
3,B1,0.06 µg/mL
4,B4,0.05 µg/mL

# Target: recombinant cynomolgus monkey OX40 (Acro Biosystems, cat. no. OXO-C5220) (cynomolgus monkey)
# Sequence (P43489 other isoform, or with tags, fused parts or gaps limits assumed): as the sequence (P43489 29-216 limits assumed) above, with H16Q, S29N, S50A, P55A, L70P, A145P, I159T, G173R, G183R, R185P counted along it
# Experiment: BLI, Ab on AHC sensor, OX40 analyte
Binder,Kd,koff,kon
B2,0.61 nM,0.00014 s⁻¹,240000 M⁻¹ s⁻¹
B3,17 nM,0.0018 s⁻¹,110000 M⁻¹ s⁻¹
B4,82 nM,0.019 s⁻¹,230000 M⁻¹ s⁻¹

# Target: recombinant human OX40 (Acro Biosystems, cat. no. OXO-H5224) (human) (UniProt P43489)
# Experiment: BLI, Ab on AHC sensor, OX40 analyte
Binder,Kd,koff,kon
B2,0.23 nM,8.4e-05 s⁻¹,360000 M⁻¹ s⁻¹
B3,15 nM,0.0022 s⁻¹,150000 M⁻¹ s⁻¹
B1,67 nM,0.0077 s⁻¹,120000 M⁻¹ s⁻¹
B4,32 nM,0.017 s⁻¹,510000 M⁻¹ s⁻¹
